From the supplement of paper PMC9732359
± gives the uncertainty stated by the source.

Assay: protein stability index of a GFP-peptide fusion (yeast GPS) (PSI 1-4); higher = more stable; sorted into four equal gates, so the index is relative within each strain
Details: doa10∆
Method in brief: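 Yeast carrying a pooled library were grown to mid-log phase in leucine-free medium. Each library plasmid expresses Cherry and has a tiled 17-residue yeast protein peptide fused downstream of GFP. Cells were sorted into four equal gates by GFP/Cherry ratio, and plasmids from each gate were PCR-amplified, Illumina-sequenced and assigned to strains by barcode. Summing, across gates, the read frequency times the gate number gave each peptide's protein stability index.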

| Sequence | protein stability index |
| --- | --- |
| LRSTENGIVDQVLVTTN [RPB2] | 2.39 ± 0.095 |

Same assay, conditions: pdr5∆

| Sequence | protein stability index |
| --- | --- |
| LIVDTHVQFRLGNVDAF [PRP8] | 2 ± 0.11 |
| LKIIYTGLCSFDYSVIL [YJL039C/NUP192] | 1.5 ± 0.057 |
| LKKNNYNSFPHSNLEKI [SIR4] | 3.27 ± 0.094 |
| LKKRYDLSYNFNVHEVP [YMR129W/POM152] | 2.6 ± 0.056 |
| LKKVQQQQQAAALANAN [SWI1] | 2.45 ± 0.081 |
| LKLCLGDHSSVPVALKG [YMR129W/POM152] | 2.91 ± 0.06 |
| LKLLVKLYTFLARRTDA [RPL18A] | 1.99 ± 0.056 |
| LKLNHIIANINSFTKGN [SNU114] | 2.15 ± 0.062 |
| LKMQQQQQQQQQQQQQQ [GAL11] | 2.89 ± 0.073 |
| LKNCKISNINIPISSET [SMC1] | 2.95 ± 0.11 |
| LKNKNFKCQEKDKGVYV [SIR2] | 3.03 ± 0.093 |
| LKNMLYVLSTAVEFESV [BRR2] | 1.58 ± 0.037 |
| LKPDLNKITNQGVTCLH [NAS6] | 2.05 ± 0.052 |
| LKQDLKKISSFKSLIDE [YGL172W/NUP49] | 2.79 ± 0.05 |
| LKQHNQNNLPPNFFLTL [BRR2] | 3.07 ± 0.069 |
| LKRFPKMSVTCNAQPIT [BRR2] | 2.23 ± 0.06 |
| LKSASKETAPVIDTLAA [RPL28] | 2.41 ± 0.11 |
| LKSHYYQTCKNSEYLKR [SMC2] | 1.5 ± 0.057 |
| LKTVIILSSLYLLSIWV [CYT1] | 1.45 ± 0.092 |
| LKVLSEHLDCMNFISKE [PCI8] | 3.14 ± 0.099 |
| LKWVAVVPDLGHLNGHT [SSN2] | 3.13 ± 0.058 |
| LKYLDDLKAQFQELDSK [RPN9] | 3.23 ± 0.069 |
| LLDTNSLEENAMSTVTL [SKI6] | 3.04 ± 0.066 |
| LLEETQAKLKKNVETLE [SMC4] | 3.18 ± 0.085 |
| LLEFFELVFSKGVYLIL [YML103C/NUP188] | 2.4 ± 0.093 |
| LLERYIGNLITRQFEGR [PRP8] | 2.63 ± 0.18 |

| Sequence | protein stability index |
| --- | --- |
| LLFNNDFPLLKVLAAHT [RRP40] | 1.25 ± 0.11 |
| LLGKESFKKIIKFLLTF [YCS4] | 1.57 ± 0.11 |
| LLICIGTSLKVAPVSEI [SIR2] | 2.01 ± 0.077 |
| LLIRKLPFQRLVREIAQ [HHT1] | 1.48 ± 0.094 |
| LLISLNILFSLWKLLST [YLR018C/POM34] | 1.25 ± 0.077 |
| LLKEKPNALKPLSESLR [RRP6] | 2.83 ± 0.065 |
| LLKELSKNAQFICTTFR [SMC3] | 2.01 ± 0.052 |
| LLKKATKPEVASDMSDE [CDC53] | 2.61 ± 0.14 |
| LLKKKDDPSKVRLLCRS [YLR335W/NUP2] | 1.85 ± 0.063 |
| LLLKLASPHASVRTAVF [ECM29] | 1.87 ± 0.043 |
| LLLLSLFKKITNVNPSK [YML103C/NUP188] | 1.9 ± 0.027 |
| LLNILSGLPTCDYYNTF [RPN2] | 2.73 ± 0.13 |
| LLNINGSRKVAGILRGY [SMX2] | 1.67 ± 0.12 |
| LLPPIKIELIKNNLLIP [RPN12] | 2.24 ± 0.062 |
| LLREFKKLDDKPSLVDV [RPN6] | 3.44 ± 0.25 |
| LLREKQRVRNMRELGLI [YOR098C/NUP1] | 1.14 ± 0.13 |
| LLRNLESKMRQQEAKYR [YDL088C/ASM4] | 1.61 ± 0.072 |
| LLSDVNQNQRNVNETMS [SMC3] | 2.89 ± 0.054 |
| LLSEHDDHNGEVWSVSW [YGL100W/SEH1] | 2.8 ± 0.069 |
| LLSIPISCPLIGVIQLA [FAS1] | 1.27 ± 0.068 |
| LLSKLLLKHPFKAIHGS [YCS4] | 2.09 ± 0.05 |
| LLSLISTTAALQSISSL [RPN7] | 1.95 ± 0.05 |
| LLSQFGIKVLPETCLFV [YML103C/NUP188] | 1.55 ± 0.058 |
| LLTNSNNGSSNNNTQNT [SNF5] | 3.25 ± 0.084 |
| LLVERLKEDDSSLYEAS [RPN1] | 3.38 ± 0.12 |
| LLVLLQDVIKVLYQSNA [SWP82] | 2.03 ± 0.084 |

| Sequence | protein stability index |
| --- | --- |
| LLVQKRFKYAPGTIVLY [RPS3] | 1.87 ± 0.073 |
| LMLKKLKNSIMSFIFPS [YML031W/NDC1] | 2.3 ± 0.066 |
| LMTKLNSFKLFKAEKLQ [RPC17] | 1.88 ± 0.054 |
| LNAINNAEKTGKRQVLI [RPS22A] | 2.3 ± 0.26 |
| LNARMFLKYYGAHKFLD [SIR2] | 1.68 ± 0.097 |
| LNATTAMDLAQMLIQGV [BRR2] | 1.68 ± 0.11 |
| LNDHIDDFEVNVASLVR [GRR1] | 3.26 ± 0.13 |
| LNEAQGHIVSLELTTGA [SMD3] | 1.9 ± 0.059 |
| LNEITNSKVNKLNIETM [DSN1] | 2.9 ± 0.097 |
| LNGGLQFVPELKEFTAK [FAS2] | 2.72 ± 0.11 |
| LNHVVSLIENKKAKLVL [RPL8B] | 3.54 ± 0.17 |
| LNICRQCFREKANDIGF [RPS29A] | 2.97 ± 0.12 |
| LNIDWSTTGDNGELDLS [MED2] | 2.48 ± 0.058 |
| LNKDSTNEFVGSPSLTS [NUT1] | 3.18 ± 0.057 |
| LNKFKKAIFQFVCRGMA [ECM29] | 2.08 ± 0.071 |
| LNKSDLLDKYGKTGLSN [YML103C/NUP188] | 3.17 ± 0.13 |
| LNNNNNNNNTTTTTTTT [SWI1] | 3.27 ± 0.062 |
| LNSLTNLLSKRNQEKKM [SNM1] | 2.86 ± 0.074 |
| LNTKSIQIDEETENSES [MCD1] | 2.52 ± 0.11 |
| LNYTVINFKSREAIRPG [AAR2] | 3.09 ± 0.068 |
| LPDELTLSYDDISAAIV [DLS1] | 2.53 ± 0.061 |
| LPEKVNFRTMQQQQMQQ [SSN2] | 2.75 ± 0.18 |
| LPFQRLVREIAQDFKTD [HHT1] | 2.48 ± 0.061 |
| LPKAWISLAVEGEPVNS [COR1] | 2.1 ± 0.14 |
| LPKLKATGHRVLIFFQM [SNF2] | 1.52 ± 0.083 |
| LPLRLQFNEFIQIMANI [PGD1] | 1.51 ± 0.088 |

| Sequence | protein stability index |
| --- | --- |
| LPNEAGRLEIFKIHTAK [RPT4] | 3.07 ± 0.16 |
| LPNLGTPDDDEIDVENH [RPN8] | 1.82 ± 0.083 |
| LPPNWKYESATASALVN [RPS13] | 2.59 ± 0.095 |
| LPPPEDVAFLKTAYSIY [RPN1] | 2.36 ± 0.052 |
| LPSEERIQKIISKRKEE [YIL149C/MLP2] | 1.66 ± 0.074 |
| LPSSNGSSRIIASDGSE [RRP42] | 2.86 ± 0.11 |
| LQDEVMNIKPVQKQTRA [RPS2] | 3.12 ± 0.18 |
| LQEKFLNQIATLKIHLK [IRR1] | 1.4 ± 0.11 |
| LQKEKELHKEGTISKLE [SMC2] | 3.08 ± 0.08 |
| LQLIIFLRTQFLKLYVL [RGR1] | 1.4 ± 0.11 |
| LQNCCIIDVGTHHTDII [ARP9] | 1.9 ± 0.07 |
| LQPIFKGEEAKLDSKKT [SSN3] | 3.11 ± 0.23 |
| LQQAKLRESEISQKLTN [SMC3] | 3.17 ± 0.073 |
| LQQGMRGAWGKPHGLAA [RPL10] | 2.57 ± 0.097 |
| LQSISSLTISLYASDYA [RPN7] | 1.84 ± 0.03 |
| LQSIVNEISRNGTMINE [PCI8] | 2.64 ± 0.13 |
| LQVADKFFRVKYENKIS [SMC3] | 2.3 ± 0.05 |
| LQYLPLYAVSTFENTNN [SIR4] | 1.71 ± 0.042 |
| LRACAANVDQISFLEPI [YMR129W/POM152] | 2.98 ± 0.07 |
| LRDTFIELDQVLNMLYW [RPO21] | 2.51 ± 0.058 |
| LRLFINEEGDWSCIVVE [ITC1] | 2.62 ± 0.083 |
| LRNWEELNIIPRDLLRV [PRP28] | 1.35 ± 0.061 |
| LRQLASYYSREQDALFI [RPN1] | 1.8 ± 0.046 |
| LRRRTASHNVRRIPKRM [POP1] | 3.02 ± 0.062 |
| LRSKTSAGRIESNNPSH [SIR4] | 2.48 ± 0.081 |
